For 1 molecule, IC50 results are on record in patent publication US20220236279A1.

This experiment has as its target human atypical chemokine receptor 3 (ACKR3) (human), P25106. The experiment in a line: binding competition with CXCL12-AF647, flow cytometry. The note with it: chains peptide; remark: other sources report otherwise. In general terms: Flow cytometry measures light scatter and fluorescence of single cells or particles in a stream.

Chain of human atypical chemokine receptor 3 (ACKR3) (human), P25106 (P25106 whole entry): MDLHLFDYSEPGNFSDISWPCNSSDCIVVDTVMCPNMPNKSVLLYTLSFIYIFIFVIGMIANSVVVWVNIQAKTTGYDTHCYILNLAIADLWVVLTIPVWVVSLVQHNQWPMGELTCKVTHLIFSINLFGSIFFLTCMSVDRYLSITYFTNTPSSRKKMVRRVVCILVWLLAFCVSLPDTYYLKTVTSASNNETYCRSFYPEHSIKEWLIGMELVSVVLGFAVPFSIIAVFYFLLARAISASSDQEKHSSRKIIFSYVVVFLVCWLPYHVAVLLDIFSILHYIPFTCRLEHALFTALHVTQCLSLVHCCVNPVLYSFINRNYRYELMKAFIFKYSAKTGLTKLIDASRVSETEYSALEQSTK

B1: nociceptin, Q13519 130-146 (peptide)
chain: FGGFTGARKSARKLANQ
Regarding B1, the IC50 – broadly, the concentration at which inhibition is half-maximal – was greater than 10 µM.
